Sequences and labels used below:
B1: SRC, P12931 (peptide)
chain: EPQYQPGENL
B2: CLDN18, P56856 (peptide)
chain: QSYPSKHDYV

pKd data for two molecules are collected here from publication PMC9482650, “Quantitative fragmentomics allow affinity mapping of interactomes” (Nature Communications, 2022).

As a reminder, the pKd is −log10 of the Kd, conventionally taken in molar units.

Numbering of substitutions follows the chain as printed.

Chain of PARD3_3, Q8TEW0 (Q8TEW0 582-685): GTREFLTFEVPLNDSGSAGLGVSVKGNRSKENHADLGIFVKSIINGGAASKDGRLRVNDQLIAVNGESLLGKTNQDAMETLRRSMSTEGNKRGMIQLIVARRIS
Chain of DLG5_1, Q8TDM6 (Q8TDM6 617-713): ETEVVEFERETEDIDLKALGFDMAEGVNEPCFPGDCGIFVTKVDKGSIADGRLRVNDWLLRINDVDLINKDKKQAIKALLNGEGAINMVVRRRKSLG
Chain of Inadl_4, Q8NI35 (Q8NI35 547-651): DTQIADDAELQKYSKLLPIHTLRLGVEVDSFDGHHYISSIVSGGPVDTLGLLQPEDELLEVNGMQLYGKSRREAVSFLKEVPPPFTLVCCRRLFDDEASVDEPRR
Chain of NHERF2_2, Q15599 (Q15599 142-238): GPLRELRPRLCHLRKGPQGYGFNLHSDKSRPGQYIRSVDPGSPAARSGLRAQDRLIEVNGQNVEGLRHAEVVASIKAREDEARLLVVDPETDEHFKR

One assay addresses NHERF2_2, Q15599. The experiment in a line: holdup assay. More on the design: key: below the threshold = too weak to quantify, mostly under pKd 3.1 to 4. To be noted: plain residues with an end cap or a label only (N-terminal biotin on a linker: ado-ado).
B1 came in with a negative-log Kd (pKd) of 3.77.

In the case of B2, the negative-log Kd (pKd) entry was “below the threshold”.

In a further assay the target is T1, MPP6, Q9NZW5.
T1 sequence (Q9NZW5 125-219, limits assumed, looked up): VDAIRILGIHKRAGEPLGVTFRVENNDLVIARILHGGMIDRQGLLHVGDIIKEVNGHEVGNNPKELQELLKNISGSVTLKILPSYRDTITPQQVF
The experiment in a line: holdup assay. Details: key: below the threshold = too weak to quantify, mostly under pKd 3.1 to 4. To be noted: plain residues with an end cap or a label only (N-terminal biotin on a linker: ado-ado).
Turning to B1, the pKd result is on record as “below the threshold”.

In the case of B2, the negative logarithm of the Kd (pKd) result is given as “below the threshold”.

A further assay addresses PARD3_3, Q8TEW0. The experiment in a line: holdup assay. Details: key: below the threshold = too weak to quantify, mostly under pKd 3.1 to 4. To be noted: plain residues with an end cap or a label only (N-terminal biotin on a linker: ado-ado).
Molecule B1 registered a pKd of 3.6.

Molecule B2 registered a negative logarithm of the Kd (pKd) of 3.69.

The next assay has as its target DLG5_1, Q8TDM6. The experiment in a line: holdup assay. To be noted: plain residues with an end cap or a label only (N-terminal biotin on a linker: ado-ado). More on the design: key: below the threshold = too weak to quantify, mostly under pKd 3.1 to 4.
In the case of B1, the pKd entry was “below the threshold”.

With B2, the pKd result is listed as “below the threshold”.

Another assay addresses Inadl_4, Q8NI35. The experiment in a line: holdup assay. Details: key: below the threshold = too weak to quantify, mostly under pKd 3.1 to 4. To be noted: plain residues with an end cap or a label only (N-terminal biotin on a linker: ado-ado).
On to B1, for which the pKd result is listed as “below the threshold”.

Consider B2, for which the negative logarithm of the Kd (pKd) result is recorded as “below the threshold”.

In a further assay the target is MAST1, Q9Y2H9. Description: holdup assay. To be noted: plain residues with an end cap or a label only (N-terminal biotin on a linker: ado-ado). More on the design: key: below the threshold = too weak to quantify, mostly under pKd 3.1 to 4.
Chain of MAST1, Q9Y2H9 (Q9Y2H9 962-1065): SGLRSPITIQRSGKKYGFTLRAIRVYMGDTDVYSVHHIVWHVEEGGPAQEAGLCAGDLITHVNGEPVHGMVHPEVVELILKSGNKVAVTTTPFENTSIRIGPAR
Take B1: the pKd worked out at 4.18.

Molecule B2 yielded a pKd of 4.

The next assay addresses DLG2_3, Q15700. Description: holdup assay. Details: key: below the threshold = too weak to quantify, mostly under pKd 3.1 to 4. The note with it: plain residues with an end cap or a label only (N-terminal biotin on a linker: ado-ado).
As for B1, the pKd entry was “below the threshold”.

On to B2, for which the pKd entry is “below the threshold”.

The target in the next assay is GRID2IP_2, A4D2P6. The experiment in a line: holdup assay. The note with it: plain residues with an end cap or a label only (N-terminal biotin on a linker: ado-ado). More on the design: key: below the threshold = too weak to quantify, mostly under pKd 3.1 to 4.
Chain of GRID2IP_2, A4D2P6 (A4D2P6 272-370): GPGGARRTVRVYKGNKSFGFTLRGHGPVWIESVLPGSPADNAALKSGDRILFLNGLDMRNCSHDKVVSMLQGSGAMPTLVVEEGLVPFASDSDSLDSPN
For the molecule B1, the pKd result was “below the threshold”.

For B2, the negative-log Kd (pKd) entry is reported as “below the threshold”.

For another assay, the target named is T2, GRIP1_3, Q9Y3R0.
T2 sequence (Q9Y3R0 247-346, limits assumed, looked up): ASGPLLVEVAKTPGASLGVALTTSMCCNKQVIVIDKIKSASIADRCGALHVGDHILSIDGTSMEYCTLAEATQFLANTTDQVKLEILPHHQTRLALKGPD
Description: holdup assay. More on the design: key: below the threshold = too weak to quantify, mostly under pKd 3.1 to 4. The note with it: plain residues with an end cap or a label only (N-terminal biotin on a linker: ado-ado).
B1: the pKd entry is recorded as “below the threshold”.

Consider B2, for which the pKd entry was “below the threshold”.

The next assay deals with T3, HTRA4, P83105.
T3 sequence (P83105 378-476, limits assumed, looked up): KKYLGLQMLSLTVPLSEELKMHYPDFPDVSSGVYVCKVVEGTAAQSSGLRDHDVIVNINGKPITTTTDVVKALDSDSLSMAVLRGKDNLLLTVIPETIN
Description: holdup assay. More on the design: key: below the threshold = too weak to quantify, mostly under pKd 3.1 to 4. The note with it: plain residues with an end cap or a label only (N-terminal biotin on a linker: ado-ado).
Molecule B1 had a negative-log Kd (pKd) of 3.9.

Consider B2, for which the negative-log Kd (pKd) stood at 4.12.

For the next assay, the target named is GRIP2_5, Q9C0E4. Description: holdup assay. Details: key: below the threshold = too weak to quantify, mostly under pKd 3.1 to 4. The note with it: plain residues with an end cap or a label only (N-terminal biotin on a linker: ado-ado).
Chain of GRIP2_5, Q9C0E4 (Q9C0E4 544-642): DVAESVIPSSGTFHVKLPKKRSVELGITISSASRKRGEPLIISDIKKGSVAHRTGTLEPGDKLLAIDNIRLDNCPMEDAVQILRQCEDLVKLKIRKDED
Consider B1, for which the pKd entry is on record as “below the threshold”.

B2: the negative-log Kd (pKd) entry is on record as “below the threshold”.

The next assay concerns the target T4, APBA1_1, Q02410.
T4 sequence (Q02410 651-752, limits assumed, looked up): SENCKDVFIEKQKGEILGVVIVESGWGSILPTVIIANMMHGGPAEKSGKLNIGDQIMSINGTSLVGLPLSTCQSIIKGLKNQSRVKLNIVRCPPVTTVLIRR
The experiment in a line: holdup assay. More on the design: key: below the threshold = too weak to quantify, mostly under pKd 3.1 to 4. The note with it: plain residues with an end cap or a label only (N-terminal biotin on a linker: ado-ado).
Take B1: the pKd entry is listed as “below the threshold”.

For B2, the pKd entry is “below the threshold”.

The target of another assay is IL16_1, Q14005. Description: holdup assay. More on the design: key: below the threshold = too weak to quantify, mostly under pKd 3.1 to 4. To be noted: plain residues with an end cap or a label only (N-terminal biotin on a linker: ado-ado).
Chain of IL16_1, Q14005 (Q14005 210-306): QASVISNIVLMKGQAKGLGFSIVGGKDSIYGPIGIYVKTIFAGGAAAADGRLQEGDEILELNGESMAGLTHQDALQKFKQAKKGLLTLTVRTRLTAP
As for B1, the negative logarithm of the Kd (pKd) entry was “below the threshold”.

As to B2, the pKd result is listed as “below the threshold”.

A further assay concerns the target T5, DFNB31_1, Q9P202.
T5 sequence (Q9P202 135-233, limits assumed, looked up): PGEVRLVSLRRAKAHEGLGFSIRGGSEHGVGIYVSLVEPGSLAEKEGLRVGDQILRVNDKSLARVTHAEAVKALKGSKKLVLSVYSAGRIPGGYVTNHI
The experiment in a line: holdup assay. More on the design: key: below the threshold = too weak to quantify, mostly under pKd 3.1 to 4. To be noted: plain residues with an end cap or a label only (N-terminal biotin on a linker: ado-ado).
For B1, the negative-log Kd (pKd) result is on record as “below the threshold”.

In turn, B2 registered a pKd of 3.49.

Another assay deals with T6, GRIP1_2, Q9Y3R0.
T6 sequence (Q9Y3R0 145-248, limits assumed, looked up): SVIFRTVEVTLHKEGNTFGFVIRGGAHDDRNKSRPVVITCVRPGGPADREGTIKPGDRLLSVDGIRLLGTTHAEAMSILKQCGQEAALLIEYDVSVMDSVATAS
The experiment in a line: holdup assay. Details: key: below the threshold = too weak to quantify, mostly under pKd 3.1 to 4. The note with it: plain residues with an end cap or a label only (N-terminal biotin on a linker: ado-ado).
With B1, the pKd result was “below the threshold”.

In the case of B2, the pKd amounted to 3.58.

In another assay the target is IL16_3, Q14005. Description: holdup assay. Details: key: below the threshold = too weak to quantify, mostly under pKd 3.1 to 4. The note with it: plain residues with an end cap or a label only (N-terminal biotin on a linker: ado-ado).
Chain of IL16_3, Q14005 (Q14005 1107-1207): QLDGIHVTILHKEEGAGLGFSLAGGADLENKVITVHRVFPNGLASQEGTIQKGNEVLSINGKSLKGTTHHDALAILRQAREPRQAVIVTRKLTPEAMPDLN
Turning to B1, the negative logarithm of the Kd (pKd) result is reported as “below the threshold”.

As for B2, the negative-log Kd (pKd) result was “below the threshold”.

In another assay the target is T7, GRIP1_4, Q9Y3R0.
T7 sequence (Q9Y3R0 467-571, limits assumed, looked up): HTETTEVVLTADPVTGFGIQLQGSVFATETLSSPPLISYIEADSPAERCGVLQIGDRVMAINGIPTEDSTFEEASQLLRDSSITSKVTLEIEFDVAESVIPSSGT
The experiment in a line: holdup assay. To be noted: plain residues with an end cap or a label only (N-terminal biotin on a linker: ado-ado). Details: key: below the threshold = too weak to quantify, mostly under pKd 3.1 to 4.
As for B1, the pKd result is listed as “below the threshold”.

Take B2: the negative logarithm of the Kd (pKd) result was “below the threshold”.

The target in a further assay is T8, PDZD7_3, Q9H5P4.
T8 sequence (Q9H5P4 857-944, limits assumed, looked up): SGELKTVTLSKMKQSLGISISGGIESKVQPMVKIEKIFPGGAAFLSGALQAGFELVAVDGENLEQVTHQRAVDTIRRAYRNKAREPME
The experiment in a line: holdup assay. Details: key: below the threshold = too weak to quantify, mostly under pKd 3.1 to 4. The note with it: plain residues with an end cap or a label only (N-terminal biotin on a linker: ado-ado).
Take B1: the pKd entry is “below the threshold”.

On to B2, for which the pKd was determined as 4.08.

Another assay has as its target T9, MPP7, Q5T2T1.
T9 sequence (Q5T2T1 134-230, limits assumed, looked up): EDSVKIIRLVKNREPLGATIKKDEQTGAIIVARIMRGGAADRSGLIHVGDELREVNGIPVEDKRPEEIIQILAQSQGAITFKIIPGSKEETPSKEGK
The experiment in a line: holdup assay. Details: key: below the threshold = too weak to quantify, mostly under pKd 3.1 to 4. To be noted: plain residues with an end cap or a label only (N-terminal biotin on a linker: ado-ado).
Turning to B1, the pKd result is given as “below the threshold”.

For B2, the pKd entry was “below the threshold”.

A further assay has as its target T10, APBA1_2, Q02410.
T10 sequence (Q02410 742-832, limits assumed, looked up): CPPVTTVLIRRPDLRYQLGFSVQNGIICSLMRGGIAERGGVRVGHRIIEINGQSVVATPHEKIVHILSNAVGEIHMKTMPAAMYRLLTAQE
The experiment in a line: holdup assay. Details: key: below the threshold = too weak to quantify, mostly under pKd 3.1 to 4. To be noted: plain residues with an end cap or a label only (N-terminal biotin on a linker: ado-ado).
Turning to B1, the negative-log Kd (pKd) is 3.59.

On to B2, for which the negative logarithm of the Kd (pKd) worked out at 4.45.

Another assay deals with T11, ARHGEF11, O15085.
T11 sequence (O15085 42-136, limits assumed, looked up): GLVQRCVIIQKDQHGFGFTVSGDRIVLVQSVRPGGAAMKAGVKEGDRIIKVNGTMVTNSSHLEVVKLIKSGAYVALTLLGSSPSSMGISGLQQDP
Description: holdup assay. The note with it: plain residues with an end cap or a label only (N-terminal biotin on a linker: ado-ado). More on the design: key: below the threshold = too weak to quantify, mostly under pKd 3.1 to 4.
Consider B1, for which the negative logarithm of the Kd (pKd) entry was “below the threshold”.

Molecule B2 registered a pKd of 3.81.

A further assay addresses T12, SNTG2, Q9NY99.
T12 sequence (Q9NY99 68-166, limits assumed, looked up): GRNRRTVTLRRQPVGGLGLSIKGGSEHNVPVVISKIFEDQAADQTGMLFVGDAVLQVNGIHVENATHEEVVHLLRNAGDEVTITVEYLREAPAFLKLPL
Description: holdup assay. Details: key: below the threshold = too weak to quantify, mostly under pKd 3.1 to 4. To be noted: plain residues with an end cap or a label only (N-terminal biotin on a linker: ado-ado).
For the molecule B1, the pKd result is reported as “below the threshold”.

With B2, the pKd result is on record as “below the threshold”.

In the next assay the target is T13, APBA2_2, Q99767.
T13 sequence (Q99767 654-744, limits assumed, looked up): T10 sequence (Q02410 742-832, limits assumed, looked up) with R10K, R15K, P59A, H65Q, I66A, A70S, Y84F, A89G
The experiment in a line: holdup assay. More on the design: key: below the threshold = too weak to quantify, mostly under pKd 3.1 to 4. To be noted: plain residues with an end cap or a label only (N-terminal biotin on a linker: ado-ado).
B1: the pKd entry is “below the threshold”.

As for B2, the pKd came out at 3.62.

A further assay concerns the target T14, DLG3_3, Q92796.
T14 sequence (Q92796 374-475, limits assumed, looked up): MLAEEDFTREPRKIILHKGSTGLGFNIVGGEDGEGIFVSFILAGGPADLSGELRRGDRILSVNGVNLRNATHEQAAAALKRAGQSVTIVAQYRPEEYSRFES
Description: holdup assay. Details: key: below the threshold = too weak to quantify, mostly under pKd 3.1 to 4. The note with it: plain residues with an end cap or a label only (N-terminal biotin on a linker: ado-ado).
For the molecule B1, the pKd result is listed as “below the threshold”.

With B2, the pKd result is “below the threshold”.
